In publication PMC4649501 (2015):
Values belong to the binder of their own block, whether it stands above or below them.

How the values were obtained:
[1] = biological target: T1, PDCD6 N-terminal domain peptide (Homo sapiens, Ca2+ (100 uM CaCl2)); experiment: SPR
T1 chain: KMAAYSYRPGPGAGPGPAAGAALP

[2] = biological target: PDCD6 (Homo sapiens, UniProt O75340); experiment: SPR
Chain of PDCD6 (O75340 2-191): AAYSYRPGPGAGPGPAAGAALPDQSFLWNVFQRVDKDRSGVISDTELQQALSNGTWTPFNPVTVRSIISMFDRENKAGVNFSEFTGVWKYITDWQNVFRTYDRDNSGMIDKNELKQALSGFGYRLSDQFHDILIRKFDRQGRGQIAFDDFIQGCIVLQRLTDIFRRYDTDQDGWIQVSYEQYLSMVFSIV

Kd [1]: 5 µM
Kd [2]: 12 µM
B1: Sorcin (protein)
chain: MAYPGHPGAGGGYYPGGYGGAPGGPAFPGQTQDPLYGYFAAVAGQDGQIDADELQRCLTQSGIAGGYKPFNLETCRLMVSMLDRDMSGTMGFNEFKELWAVLNGWRQHFISFDTDRSGTVDPQELQKALTTMGFRLSPQAVNSIAKRYSTNGKITFDDYIACCVKLRALTDSFRRRDTAQQGVVNFPYDDFIQCVMSV

Kd [2]: 3.5 µM
B2: Sorcin (protein)
chain: B1 chain
modifications: Ca2+ (100 uM CaCl2)

Kd [1]: 6 µM
Kd [2]: 5 µM
B3: SCBD (Sorcin calcium-binding domain) 33-198 (protein)
chain: DPLYGYFAAVAGQDGQIDADELQRCLTQSGIAGGYKPFNLETCRLMVSMLDRDMSGTMGFNEFKELWAVLNGWRQHFISFDTDRSGTVDPQELQKALTTMGFRLSPQAVNSIAKRYSTNGKITFDDYIACCVKLRALTDSFRRRDTAQQGVVNFPYDDFIQCVMSV

Kd [2]: 3.5 µM
B4: SCBD (Sorcin calcium-binding domain) 33-198 (protein)
chain: B3 chain
modifications: Ca2+ (100 uM CaCl2)
